Conditions in all cases: both partners purified
The target of one experiment is His-GABARAPL2 (human, UniProt P60520 1-117). The experiment in a line: ITC; 0.6 mM peptide titrated into 0.06 mM His-LC3/GABARAP protein in 20 steps at 25 °C; 50 mM Tris pH 7.0, 25 mM NaCl; one-site binding model.
The target in a further experiment is His-GABARAPL1 (human, UniProt Q9H0R8 1-117). The experiment is described as above.
In another experiment the target is His-LC3A (human, UniProt Q9H492 1-121). The description is as above.
For the next experiment, the target named is His-GABARAP (human, UniProt O95166 1-117). The description is as above.
A further experiment addresses T1, hEPG5^F794A (human, UniProt Q9HCE0 1-2579, F794A).
T1 construct: also called third LIR motif mutant
The experiment is described as follows: pull-down; GST pull-down: purified GST-LC3A/B/C or GST-GABARAP/L1/L2 bait (200–240 µg) on glutathione resin, purified His-FLAG-hEPG5 or mutant (25–30 µg) as prey; 50 mM Tris pH 8.0, 150 mM NaCl, 5% glycerol, 0.01% Tween20, 0.5 mM DTT, 4 °C; anti-FLAG fluorescence western blot.

A further experiment has as its target T2, hEPG5^Q336R (human, UniProt Q9HCE0 1-2579, Q336R).
T2 construct: human EPG5, full length, with the Vici syndrome missense mutation Q336R (c.1007A>G); also called Gln336Arg; Vici syndrome mutant
Described as above.

For a further experiment, the target named is T3, hEPG5^W567A (human, UniProt Q9HCE0 1-2579, W567A).
T3 construct: also called LIR2 mutant
T3 sequence (Q9HCE0 whole entry W567A): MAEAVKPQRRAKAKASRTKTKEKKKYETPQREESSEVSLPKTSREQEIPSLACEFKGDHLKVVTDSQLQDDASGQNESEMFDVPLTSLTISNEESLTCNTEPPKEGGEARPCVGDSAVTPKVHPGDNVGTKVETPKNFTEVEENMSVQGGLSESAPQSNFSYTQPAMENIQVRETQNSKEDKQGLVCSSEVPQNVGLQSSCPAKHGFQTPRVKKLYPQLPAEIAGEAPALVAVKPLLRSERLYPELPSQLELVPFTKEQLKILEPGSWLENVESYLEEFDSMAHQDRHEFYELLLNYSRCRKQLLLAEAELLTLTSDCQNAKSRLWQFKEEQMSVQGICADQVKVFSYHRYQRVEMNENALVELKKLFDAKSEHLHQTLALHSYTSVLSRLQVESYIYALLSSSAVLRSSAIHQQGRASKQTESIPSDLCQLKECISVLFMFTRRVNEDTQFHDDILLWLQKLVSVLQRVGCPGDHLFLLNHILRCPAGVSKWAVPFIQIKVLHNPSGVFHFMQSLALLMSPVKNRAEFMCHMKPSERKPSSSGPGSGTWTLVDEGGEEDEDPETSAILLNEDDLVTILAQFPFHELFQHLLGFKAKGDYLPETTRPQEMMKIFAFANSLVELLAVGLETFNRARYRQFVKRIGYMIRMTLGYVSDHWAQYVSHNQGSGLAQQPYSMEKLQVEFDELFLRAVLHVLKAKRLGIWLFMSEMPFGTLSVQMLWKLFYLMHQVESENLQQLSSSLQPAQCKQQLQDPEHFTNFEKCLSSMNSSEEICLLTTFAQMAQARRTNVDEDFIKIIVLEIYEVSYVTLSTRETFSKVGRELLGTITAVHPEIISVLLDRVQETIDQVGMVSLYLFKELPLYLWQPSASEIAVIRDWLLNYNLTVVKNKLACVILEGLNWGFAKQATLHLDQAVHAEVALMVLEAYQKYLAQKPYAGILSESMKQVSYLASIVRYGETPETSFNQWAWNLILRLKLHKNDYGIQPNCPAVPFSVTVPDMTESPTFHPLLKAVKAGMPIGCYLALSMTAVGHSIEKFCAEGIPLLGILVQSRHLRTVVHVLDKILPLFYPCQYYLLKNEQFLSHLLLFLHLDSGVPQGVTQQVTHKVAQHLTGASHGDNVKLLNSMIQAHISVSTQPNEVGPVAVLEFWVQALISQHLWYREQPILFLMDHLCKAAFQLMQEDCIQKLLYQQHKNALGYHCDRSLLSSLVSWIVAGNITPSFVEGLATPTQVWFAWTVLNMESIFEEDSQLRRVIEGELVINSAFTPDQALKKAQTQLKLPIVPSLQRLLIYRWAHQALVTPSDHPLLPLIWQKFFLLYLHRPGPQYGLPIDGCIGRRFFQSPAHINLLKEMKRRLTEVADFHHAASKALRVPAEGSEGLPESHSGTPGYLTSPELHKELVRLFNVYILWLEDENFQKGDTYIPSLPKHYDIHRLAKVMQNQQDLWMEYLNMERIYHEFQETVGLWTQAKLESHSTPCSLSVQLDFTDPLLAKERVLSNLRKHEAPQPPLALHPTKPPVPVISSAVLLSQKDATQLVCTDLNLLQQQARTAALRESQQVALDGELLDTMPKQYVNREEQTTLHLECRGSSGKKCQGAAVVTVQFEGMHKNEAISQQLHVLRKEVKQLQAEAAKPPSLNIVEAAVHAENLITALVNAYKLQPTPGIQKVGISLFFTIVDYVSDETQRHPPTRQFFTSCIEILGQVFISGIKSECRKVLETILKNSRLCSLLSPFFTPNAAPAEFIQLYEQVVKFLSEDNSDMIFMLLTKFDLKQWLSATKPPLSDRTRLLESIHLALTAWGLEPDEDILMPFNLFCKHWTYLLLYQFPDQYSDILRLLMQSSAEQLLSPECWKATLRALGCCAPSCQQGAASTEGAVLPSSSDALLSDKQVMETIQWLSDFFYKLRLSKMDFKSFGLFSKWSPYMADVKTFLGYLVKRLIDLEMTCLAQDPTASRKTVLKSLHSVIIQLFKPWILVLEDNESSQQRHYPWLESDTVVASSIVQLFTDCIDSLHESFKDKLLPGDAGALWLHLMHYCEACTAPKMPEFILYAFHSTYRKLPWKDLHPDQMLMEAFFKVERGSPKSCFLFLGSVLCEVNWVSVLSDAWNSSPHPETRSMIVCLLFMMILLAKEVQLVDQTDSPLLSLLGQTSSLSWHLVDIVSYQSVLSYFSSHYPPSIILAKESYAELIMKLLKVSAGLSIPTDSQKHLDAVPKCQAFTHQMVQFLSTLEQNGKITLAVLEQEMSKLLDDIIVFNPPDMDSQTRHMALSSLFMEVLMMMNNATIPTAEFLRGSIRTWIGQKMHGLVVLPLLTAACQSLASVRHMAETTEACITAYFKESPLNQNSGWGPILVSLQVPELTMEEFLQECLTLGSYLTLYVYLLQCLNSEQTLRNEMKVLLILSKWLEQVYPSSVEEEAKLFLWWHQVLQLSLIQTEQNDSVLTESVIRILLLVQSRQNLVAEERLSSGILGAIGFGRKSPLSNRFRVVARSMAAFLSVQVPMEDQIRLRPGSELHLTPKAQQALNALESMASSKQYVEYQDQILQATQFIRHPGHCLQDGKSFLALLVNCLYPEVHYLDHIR
The experiment is described as above.

The target of the next experiment is T4, hEPG5^Δ1770–2579 (human, UniProt Q9HCE0 1-1769).
T4 construct: also called truncated hEPG5 lacking the entire C-terminal region
T4 sequence (Q9HCE0 1-1769, stated change not applied): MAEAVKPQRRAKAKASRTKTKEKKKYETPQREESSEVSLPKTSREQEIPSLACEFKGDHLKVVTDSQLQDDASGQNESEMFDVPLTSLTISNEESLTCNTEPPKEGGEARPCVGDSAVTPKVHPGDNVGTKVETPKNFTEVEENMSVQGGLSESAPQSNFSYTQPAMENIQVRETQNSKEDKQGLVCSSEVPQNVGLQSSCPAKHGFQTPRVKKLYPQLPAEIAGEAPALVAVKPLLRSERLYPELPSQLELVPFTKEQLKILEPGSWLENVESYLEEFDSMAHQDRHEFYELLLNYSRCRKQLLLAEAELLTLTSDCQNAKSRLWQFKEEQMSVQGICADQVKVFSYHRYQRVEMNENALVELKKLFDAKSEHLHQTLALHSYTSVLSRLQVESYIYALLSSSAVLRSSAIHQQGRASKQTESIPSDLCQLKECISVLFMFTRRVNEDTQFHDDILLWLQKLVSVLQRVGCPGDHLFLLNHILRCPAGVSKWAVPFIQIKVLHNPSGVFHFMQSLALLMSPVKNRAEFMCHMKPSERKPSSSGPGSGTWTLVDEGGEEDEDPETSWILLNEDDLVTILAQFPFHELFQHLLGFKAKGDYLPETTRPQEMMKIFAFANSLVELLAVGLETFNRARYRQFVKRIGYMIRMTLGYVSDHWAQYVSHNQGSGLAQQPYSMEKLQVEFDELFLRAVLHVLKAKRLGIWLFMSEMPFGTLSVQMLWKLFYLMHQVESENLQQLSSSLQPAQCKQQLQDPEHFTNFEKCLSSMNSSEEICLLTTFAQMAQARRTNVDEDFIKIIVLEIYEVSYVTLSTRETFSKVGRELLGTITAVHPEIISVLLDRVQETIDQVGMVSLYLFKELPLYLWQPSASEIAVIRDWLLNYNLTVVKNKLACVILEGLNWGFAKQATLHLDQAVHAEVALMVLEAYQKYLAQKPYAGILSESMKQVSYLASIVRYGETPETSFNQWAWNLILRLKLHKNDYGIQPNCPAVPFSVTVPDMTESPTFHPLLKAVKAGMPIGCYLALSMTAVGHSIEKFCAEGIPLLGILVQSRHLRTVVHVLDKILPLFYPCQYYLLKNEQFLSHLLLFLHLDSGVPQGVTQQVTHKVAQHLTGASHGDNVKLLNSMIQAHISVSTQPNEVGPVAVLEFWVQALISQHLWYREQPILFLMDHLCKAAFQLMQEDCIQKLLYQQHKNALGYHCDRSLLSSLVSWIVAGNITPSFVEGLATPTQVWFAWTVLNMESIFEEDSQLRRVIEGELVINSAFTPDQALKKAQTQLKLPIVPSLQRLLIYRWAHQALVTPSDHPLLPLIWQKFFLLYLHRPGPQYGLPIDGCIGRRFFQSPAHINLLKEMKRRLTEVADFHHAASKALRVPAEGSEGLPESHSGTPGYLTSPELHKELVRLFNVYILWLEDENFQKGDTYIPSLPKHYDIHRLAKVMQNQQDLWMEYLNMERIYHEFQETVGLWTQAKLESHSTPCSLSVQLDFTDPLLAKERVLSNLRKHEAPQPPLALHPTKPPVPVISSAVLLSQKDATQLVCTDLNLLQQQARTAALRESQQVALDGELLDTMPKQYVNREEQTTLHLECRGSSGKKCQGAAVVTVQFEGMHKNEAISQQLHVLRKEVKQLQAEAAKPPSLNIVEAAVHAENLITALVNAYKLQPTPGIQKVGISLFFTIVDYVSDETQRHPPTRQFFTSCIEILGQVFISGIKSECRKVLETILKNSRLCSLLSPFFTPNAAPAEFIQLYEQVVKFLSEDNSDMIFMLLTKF
The experiment is described as above.

The target in a further experiment is T5, hEPG5^Δ1–548 (human, UniProt Q9HCE0 549-2579).
T5 construct: also called truncated hEPG5 devoid of the region between the N-terminus and the two LIR motifs
The description is as above.

Experiment [1] concerns the target T6, His-FLAG-hEPG5 (human EPG5, full length, wild type) (human, UniProt Q9HCE0 1-2579).
T6 construct: His-FLAG tag from a modified pFastBacHTB; also called hEPG5^WT; ectopic P-granules autophagy protein 5
The experiment in a line: pull-down; co-purification: His-FLAG-hEPG5 bound to Ni-NTA resin, GST-GABARAP applied, washed, eluted with imidazole; 50 mM Na phosphate pH 7.4, 150 mM NaCl, 0.01% TWEEN 20, 5% glycerol; complex seen on SDS-PAGE and by negative stain EM 2D class averages.

The target of another experiment is His-LC3B (human, UniProt Q9GZQ8 1-120). The experiment in a line: ITC; 0.6 mM peptide titrated into 0.06 mM His-LC3/GABARAP protein in 20 steps at 25 °C; 50 mM Tris pH 7.0, 25 mM NaCl; one-site binding model.

Chain of His-GABARAPL2 (P60520 whole entry): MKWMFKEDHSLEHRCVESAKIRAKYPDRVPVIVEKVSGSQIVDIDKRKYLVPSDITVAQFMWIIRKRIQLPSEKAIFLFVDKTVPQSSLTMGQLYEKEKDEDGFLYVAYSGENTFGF
Chain of His-GABARAPL1 (Q9H0R8 whole entry): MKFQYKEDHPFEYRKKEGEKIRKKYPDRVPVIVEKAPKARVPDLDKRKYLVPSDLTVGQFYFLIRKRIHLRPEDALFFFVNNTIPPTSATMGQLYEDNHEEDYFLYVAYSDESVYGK
T2 sequence (Q9HCE0 whole entry Q336R): as the sequence (Q9HCE0 whole entry W567A) above, with Q336R, A567W counted along it
T1 sequence (Q9HCE0 whole entry F794A): as the sequence (Q9HCE0 whole entry W567A) above, with A567W, F794A counted along it
T6 sequence (Q9HCE0 whole entry): as the sequence (Q9HCE0 whole entry W567A) above, with A567W counted along it

B1: hEPG5-LIR1 peptide (peptide)
peptide: GSGTWTLVDEG
notes: human EPG5 residues 546-556, holding the LIR1 motif 550WTLV553; source: synthetic peptide (LifeTein)
As to B1, the Kd with His-GABARAPL2 was determined as 11.8 µM; with His-GABARAPL1, 8.54 µM; with His-GABARAP, 7.47 µM. Further, in the experiment with His-LC3A, the “fold KD relative to LIR1-GABARAP” value came to 3 times.

B2: GST-GABARAP (natural protein, human, UniProt O95166 1-117, looked up)
chain: MKFVYKEEHPFEKRRSEGEKIRKKYPDRVPVIVEKAPKARIGDLDKKKYLVPSDLTVGQFYFLIRKRIHLRAEDALFFFVNNVIPPTSATMGQLYQEHHEEDFFLYIAYSDESVYGL
On to B2, for which the binding result (with hEPG5^F794A; with hEPG5^Q336R; in the experiment with hEPG5^W567A; with hEPG5^Δ1770–2579; with hEPG5^Δ1–548; in [1]) was “binds” each time.
As to DEDPETSWILLN (source: synthetic peptide (GenScript)) [hEPG5-LIR2 peptide], the Kd came out at 0.68 µM with His-GABARAPL2, 1750 nM with His-LC3A, 0.16 µM in the experiment with His-GABARAP and 4.07 µM with His-LC3B.

The record behind these values is PMC7935953, “Insights on autophagosome–lysosome tethering from structural and biochemical characterization of human autophagy factor EPG5” (Communications Biology, 2021).
